The text below walks through data of patent publication US20240117022A1 (GANYMED PHARMACEUTICALS, published 2024).

The target in assay [1] is T1, human CLD18A1 (human, UniProt P56856 1-261).
T1 construct: Expressed on transfected HEK293 or CHO cells; also called claudin 18 splice variant 1; NP_057453
As to the kind of experiment: flow cytometry on HEK293-CLD18A1 cells. Background: A flow cytometer gives signals particle by particle.

Assay [2] addresses T1, human CLD18A1. As to the kind of experiment: summary of Example 10.
Assay [3] deals with T1, human CLD18A1. The assay can be described thus: overview table of murine antibodies.
Assay [4] deals with T2, murine CLD18A1 (mouse, UniProt P56857 1-264).
T2 construct: Transiently expressed on HEK293 cells; also called mouse CLD18A1; NP_062789
As to the kind of experiment: overview table of murine antibodies.

Assay [5] deals with T1, human CLD18A1. As to the kind of experiment: overview table of chimeric antibodies.
For assay [6], the target named is T2, murine CLD18A1. The assay can be described thus: summary of Example 10.

B1: ch-43A11 (antibody, V domains shown)
VH: QVQLQQSGAELMKPGASVKISCKATGYTFSSYWIEWVKQRPGHGLEWIGEILPGSGSTNYNEKFKGKATFTADTSSNTAYMQLSSLTSEDSAVYYCARYDYPWFAYWGQGTLVTVSA
VL: QIVLTQSPAIMSASPGEKVTITCSASSSVSYMHWFQQKPGTSPKLWIYSTSNLASGVPARFSGSGSGTSYSLTISRMEAEDAATYYCQQRSSYPPTFGGGTKLEIKR
notes: Mouse/human chimeric, human gamma-1 and kappa constant regions; also called chimeric 43A11
B1: in the assay with human CLD18A1 [1], the binding result is listed as “no binding”.

B2: 43A11 (antibody, IgG2a, V domains shown)
VH: B1 VH
VL: QIVLTQSPAIMSASPGEKVTITCSASSSVSYMHWFQQKPGTSPKLWIYSTSNLASGVPARFSGSGSGTSYSLTISRMEAEDAATYYCQQRSSYPPTFGGGTKLEIK
notes: mouse monoclonal IgG2a, kappa; also called 182-D1106-062; DSM ACC2742
Consider B2, for which the binding result with human CLD18A1 [2] is “no binding”.

B3: 163E12 (antibody, IgG3, V domains shown)
VH: QIQLVQSGPELKKPGETVKISCKASGYTFTNYGMNWVKQAPGKGLKWMGWINTNTGEPTYAEEFKGRFAFSLETSASTAYLQINNLKNEDTATYFCARLGFGNAMDYWGQGTSVTVSS
VL: DIVMTQSPSSLTVTAGEKVTMSCKSSQSLLNSGNQKNYLTWYQQKPGQPPKLLIYWASTRESGVPDRFTGSGSGTDFTLTISSVQAEDLAVYYCQNDYSYPLTFGAGTKLELK
notes: mouse monoclonal IgG3, kappa; also called 182-D1106-294; DSM ACC2809
On to B3, for which the binding result with human CLD18A1 [3] and in the assay with murine CLD18A1 [4] was “no binding” in each case.

B4: ch-163E12 (antibody, V domains shown)
VH: B3 VH
VL: DIVMTQSPSSLTVTAGEKVTMSCKSSQSLLNSGNQKNYLTWYQQKPGQPPKLLIYWASTRESGVPDRFTGSGSGTDFTLTISSVQAEDLAVYYCQNDYSYPLTFGAGTKLELKR
notes: Mouse/human chimeric, human gamma-1 and kappa constant regions; also called chimeric 163E12
As for B4, in the assay with human CLD18A1 [5], the binding result is given as “no binding”.

B5: ch-166E2 (antibody, V domains shown)
VH: QVQLQQSGPELVKPGASVKMSCKASGYTFTDYVISWVKQRTGQGLEWIGEIYPGSGSTYYNEKFKGKATLTADKSSNTAYMQLSSLTSEDSAVYFCARGVLLRAMDYWGQGTSVTVSS
VL: DIVMSQSPSSLAVSAGEKVTMSCKSSQSLLNSRTRKNYLAWYQQKPGQSPKLLIYWASTRESGVPDRFTGSGSGTDFTLTISSVQAEDLAVYYCKQSYNLYTFGGGTKLEIKR
notes: Mouse/human chimeric, human gamma-1 and kappa constant regions; also called chimeric 166E2
Regarding B5, the binding result with human CLD18A1 [1] is “no binding”.

B6: 166E2 (antibody, IgG3, V domains shown)
VH: B5 VH
VL: DIVMSQSPSSLAVSAGEKVTMSCKSSQSLLNSRTRKNYLAWYQQKPGQSPKLLIYWASTRESGVPDRFTGSGSGTDFTLTISSVQAEDLAVYYCKQSYNLYTFGGGTKLEIK
notes: mouse monoclonal IgG3, kappa; also called 182-D1106-308
Regarding B6, the binding result in the assay with human CLD18A1 [2] and with murine CLD18A1 [6] was “no binding” in each case.

B7: 125E1 (antibody, IgG2a, V domains shown)
VH: QVQLQQSGAELARPGASVKLSCKASGYTFTDYYINWVKQRTGQGLEWIGEIYPGSGNTYYNEKFKGKATLTADKSSSTAYMQLSSLTSEDSAVYFCARSYGAFDYWGQGTTLTVSS
VL: DIVMTQSQKFMSTSVGDRVSITCKASQNVRTAVAWYQQKPGQSPKALIYLASNRHTGVPDRFTGSGSGTDFTLTISNVQSEDLADYFCLQHWNYPLTFGGGTKLEIK
notes: mouse monoclonal IgG2a, kappa; also called 182-D1106-279; DSM ACC2808
In the case of B7, the binding result in the assay with human CLD18A1 [3] and with murine CLD18A1 [4] was “no binding” each time.

B8: ch-125E1 (antibody, V domains shown)
VH: B7 VH
VL: DIVMTQSQKFMSTSVGDRVSITCKASQNVRTAVAWYQQKPGQSPKALIYLASNRHTGVPDRFTGSGSGTDFTLTISNVQSEDLADYFCLQHWNYPLTFGGGTKLEIKR
notes: Mouse/human chimeric, human gamma-1 and kappa constant regions; also called chimeric 125E1
On to B8, for which, in the assay with human CLD18A1 [5], the binding result is given as “no binding”.
